Laboratory results from patent US20220281931A1 (published 2022).

B1: BCL6^241-260 peptide (peptide)
peptide: EYSRPTLEVSPNVCHSNIYS
notes: also called V×P-containing polypeptide
B2: V5SIAH1^C44S (enzyme, UniProt Q8IUQ4 1-282, looked up)
chain: MSRQTATALPTGTSKCPPSQRVPALTGTTASNNDLASLFECPVSFDYVLPPILQCQSGHLVCSNCRPKLTCCPTCRGPLGSIRNLAMEKVANSVLFPCKYASSGCEITLPHTEKADHEELCEFRPYSCPCPGASCKWQGSLDAVMPHLMHQHKSITTLQGEDIVFLATDINLPGAVDWVMMQSCFGFHFMLVLEKQEKYDGHQQFFAIVQLIGTRKQAENFAYRLELNGHRRRLTWEATPRSIHEGIATAIMNSDCLVFDTSIAQLFAENGNLGINVTISMC
notes: Expressed from pLEX_307 in HEK293T Cas9 cells; also called V5SIAH1^44C>S; V5SIAH1^44>S; not shown: V5 tag
B3: biotinylated Strep II Avi-tagged SIAH1^SBD (enzyme, human, UniProt Q8IUQ4 90-282, looked up)
chain: VANSVLFPCKYASSGCEITLPHTEKADHEELCEFRPYSCPCPGASCKWQGSLDAVMPHLMHQHKSITTLQGEDIVFLATDINLPGAVDWVMMQSCFGFHFMLVLEKQEKYDGHQQFFAIVQLIGTRKQAENFAYRLELNGHRRRLTWEATPRSIHEGIATAIMNSDCLVFDTSIAQLFAENGNLGINVTISMC
modifications: biotinylated (Avi tag)
notes: range 90-282; Captured through terbium-coupled streptavidin in TR-FRET; also called BiotinSIAH1^SBD; not shown: N-terminal Strep II-Avi tag
B4: SIAH1^SBD (tag-cleaved) (enzyme, human, UniProt Q8IUQ4 90-282, looked up)
chain: B3 chain
notes: range 90-282; also called recombinant SIAH1^SBD

How the values were obtained:
SIAH1^SBD (tag-cleaved) = biological target: B4; assay: isothermal titration calorimetry, peptide injected into SIAH1^SBD
Procedure: (§1) All calorimetric experiments were carried out using an Affinity ITC from TA Instruments (New Castle, Del.) equipped with auto sampler in a buffer containing 20 mM HEPES, pH 7.5, 150 mM NaCl, and 0.5 mM TCEP at 25° C. For the BCL6-SIAH1 interaction, 25 μM BCL6⁵⁻³⁶⁰ protein solution in the calorimetric cell was titrated by injecting 2 μL of 250 μM SIAH1^SBD protein solution in 200 sec intervals with stirring speed at 125 rpm. […] Resulting isotherm was fitted with a single site model to yield thermodynamic parameters of DH, DS, stoichiometry, and Kd using NanoAnalyze software (TA instruments).

eGFPBCL6^1-275 = biological target: T1, eGFPBCL6^1-275 (human, UniProt P41182 1-275); assay: immunofluorescence colocalization in HEK293T cells, 1 µM BI-3802
T1 construct: Expressed in HEK293T Cas9 cells; also called eGFPBCL6^275; minimal degradable construct; not shown: eGFP

[1] = biological target: T2, eGFPBCL6^FL 249-251 VSP>GSA (human, UniProt P41182 1-706); assay: co-immunoprecipitation (GFP-trap) from HEK293T cells, BI-3802 or DMSO
T2 construct: Expressed in HEK293T Cas9 cells; also called BCL6 V×P motif mutant; not shown: eGFP
Procedure: (§2) The cells were harvested and lysed in RIPA lysis buffer (ThermoFisher Scientific, #89900) infused with protease inhibitor (ThermoFisher Scientific, Halt™ Protease Inhibitor Cocktail #78438) for 30 min at 4° C. […] Lysates were cleared by centrifugation (17,000 g, 20 min, 4° C.). 20 μL of pre-cleaned GFP-trap magnetic agarose beads (Chromotek, gmta-20) was added to the lysates. The beads-lysate mix was incubated at 4° C. for 30 min. Proteins were eluted in 2×sample buffer at 98° C. Eluates and whole-cell lysates were run on a polyacrylamide gel, transferred to a nitrocellulose membrane and immunoblotted for eGFP and V5.

eGFPBCL6^1-250 = biological target: T3, eGFPBCL6^1-250 (human, UniProt P41182 1-250); assay: as above
T3 construct: Expressed in HEK293T Cas9 cells; also called eGFPBCL6^250; non-degradable eGFPBCL6^1-250 construct; not shown: eGFP
Procedure: as §2

[2] = biological target: T4, BodipyFL-labeled BCL6^5-360 (human, UniProt P41182 5-360, BodipyFL label (site not stated)); assay: TR-FRET, apparent KD; BodipyFL-BCL6^5-360 titrated to biotinylated SIAH1^SBD in the presence of 2 µM BI-3802
T4 construct: also called BodipyBCL6^5-360; BodipyFL-BCL6^5-360
Procedure: Titrations of BodipyFL-BCL6⁵⁻³⁶⁰ were carried out by mixing 400 nM biotinylated Strep II Avi-tagged SIAH1^SBD, 2 μM compounds or equivalent volume of DMSO, and 4 nM terbium-coupled streptavidin in the same assay buffer. After dispensing the assay mixture, increasing concentration of BodipyFL-BCL6⁵⁻³⁶⁰ was added to the SIAH1 mixture in a […] (7.5 μL each, total 15 μL assay volume). The 520/490 nm ratios were measured in as described above and plotted to calculate the KD^APP values using dose-response analysis standard four parameter log-logistic curves using the dr4pl R package.

BCL6^5-360 (ITC) = biological target: T5, BCL6^5-360 (ITC) (human, UniProt P41182 5-360); assay: isothermal titration calorimetry, SIAH1^SBD injected into BCL6^5-360
T5 construct: also called BCL6^5-360 protein
Procedure: as §1

Binder: B1
binding result (SIAH1^SBD (tag-cleaved)): binds

Binder: B2
binding result (eGFPBCL6^1-275): binds
binding result [1]: no binding
binding result (eGFPBCL6^1-250): no binding

Binder: B3
Kd [2]: 200 nM

Binder: B4
binding result (BCL6^5-360 (ITC)): binds
